Among the data in PMC12358912, “NIPBL and STAG1 enable loop extrusion by providing differential DNA–cohesin affinity” (Proceedings of the National Academy of Sciences of the …, 2024) are Kd values, retold here.

Usually Kd stands for the free concentration of one partner at which half of the binding sites on the other are occupied at equilibrium, for simple one-to-one binding.

Test [1] addresses T1, SMC1/SMC3/SCC1 cohesin Trimer (UniProt Q14683 1-1233; Q9UQE7 1-1217; O60216 1-631).
T1 construct: SMC1 subunit of the cohesin Trimer; SMC3 subunit of the cohesin Trimer; kleisin SCC1 (also known as RAD21 or Mcd1) of the cohesin Trimer; also called the cohesin Trimer; Trimer (SMC1/SMC3/SCC); copies: + +
Nature of the test: mass photometry; in solution; KD from evaluating the individual mass distributions of the STAG1 and cohesin Trimer mixtures directly (single-shot). To be noted: both partners purified.

Test [2] addresses T1, SMC1/SMC3/SCC1 cohesin Trimer. Nature of the test: mass photometry; in solution; titration at constant cohesin Trimer (50 nM total protein, 12.6 ± 0.9 nM effective Trimer), STAG1 3 to 30 nM, six concentrations with 3 technical repeats each; incubated to equilibrium; molar fraction of the complex fitted to the Hill equation. The note with it: both partners purified.

T1 sequence (Q14683 whole entry, chain 1 of 3): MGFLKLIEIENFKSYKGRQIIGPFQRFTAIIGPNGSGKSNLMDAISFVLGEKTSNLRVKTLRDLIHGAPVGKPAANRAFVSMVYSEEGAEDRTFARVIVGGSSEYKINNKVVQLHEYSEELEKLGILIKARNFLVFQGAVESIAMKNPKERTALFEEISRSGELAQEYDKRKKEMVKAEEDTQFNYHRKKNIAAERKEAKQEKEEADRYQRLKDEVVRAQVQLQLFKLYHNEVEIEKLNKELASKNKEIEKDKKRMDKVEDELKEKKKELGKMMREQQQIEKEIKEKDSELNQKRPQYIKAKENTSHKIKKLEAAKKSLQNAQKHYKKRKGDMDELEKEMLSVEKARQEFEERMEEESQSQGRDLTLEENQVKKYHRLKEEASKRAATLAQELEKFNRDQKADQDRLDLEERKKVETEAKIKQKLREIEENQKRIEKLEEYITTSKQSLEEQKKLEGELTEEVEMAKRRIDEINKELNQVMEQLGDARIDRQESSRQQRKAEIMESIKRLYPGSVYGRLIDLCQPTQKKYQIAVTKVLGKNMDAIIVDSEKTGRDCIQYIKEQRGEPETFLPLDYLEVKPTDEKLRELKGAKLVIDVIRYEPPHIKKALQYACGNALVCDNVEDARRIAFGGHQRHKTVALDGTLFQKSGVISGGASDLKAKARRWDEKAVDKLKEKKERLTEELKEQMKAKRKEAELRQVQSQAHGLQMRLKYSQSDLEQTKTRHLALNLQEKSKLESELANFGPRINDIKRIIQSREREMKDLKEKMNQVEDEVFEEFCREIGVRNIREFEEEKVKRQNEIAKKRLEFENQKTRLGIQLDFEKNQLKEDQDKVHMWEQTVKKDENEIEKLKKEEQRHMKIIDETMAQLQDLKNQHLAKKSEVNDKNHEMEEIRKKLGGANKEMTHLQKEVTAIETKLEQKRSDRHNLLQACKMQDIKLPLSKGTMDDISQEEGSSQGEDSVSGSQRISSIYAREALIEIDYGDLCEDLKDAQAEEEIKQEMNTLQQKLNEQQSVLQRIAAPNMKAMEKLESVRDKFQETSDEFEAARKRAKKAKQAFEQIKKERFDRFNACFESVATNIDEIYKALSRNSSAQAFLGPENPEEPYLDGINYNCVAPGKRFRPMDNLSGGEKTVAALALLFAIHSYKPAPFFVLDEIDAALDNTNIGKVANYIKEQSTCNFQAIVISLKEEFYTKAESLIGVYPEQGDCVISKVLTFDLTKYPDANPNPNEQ
T1 sequence (Q9UQE7 whole entry, chain 2 of 3): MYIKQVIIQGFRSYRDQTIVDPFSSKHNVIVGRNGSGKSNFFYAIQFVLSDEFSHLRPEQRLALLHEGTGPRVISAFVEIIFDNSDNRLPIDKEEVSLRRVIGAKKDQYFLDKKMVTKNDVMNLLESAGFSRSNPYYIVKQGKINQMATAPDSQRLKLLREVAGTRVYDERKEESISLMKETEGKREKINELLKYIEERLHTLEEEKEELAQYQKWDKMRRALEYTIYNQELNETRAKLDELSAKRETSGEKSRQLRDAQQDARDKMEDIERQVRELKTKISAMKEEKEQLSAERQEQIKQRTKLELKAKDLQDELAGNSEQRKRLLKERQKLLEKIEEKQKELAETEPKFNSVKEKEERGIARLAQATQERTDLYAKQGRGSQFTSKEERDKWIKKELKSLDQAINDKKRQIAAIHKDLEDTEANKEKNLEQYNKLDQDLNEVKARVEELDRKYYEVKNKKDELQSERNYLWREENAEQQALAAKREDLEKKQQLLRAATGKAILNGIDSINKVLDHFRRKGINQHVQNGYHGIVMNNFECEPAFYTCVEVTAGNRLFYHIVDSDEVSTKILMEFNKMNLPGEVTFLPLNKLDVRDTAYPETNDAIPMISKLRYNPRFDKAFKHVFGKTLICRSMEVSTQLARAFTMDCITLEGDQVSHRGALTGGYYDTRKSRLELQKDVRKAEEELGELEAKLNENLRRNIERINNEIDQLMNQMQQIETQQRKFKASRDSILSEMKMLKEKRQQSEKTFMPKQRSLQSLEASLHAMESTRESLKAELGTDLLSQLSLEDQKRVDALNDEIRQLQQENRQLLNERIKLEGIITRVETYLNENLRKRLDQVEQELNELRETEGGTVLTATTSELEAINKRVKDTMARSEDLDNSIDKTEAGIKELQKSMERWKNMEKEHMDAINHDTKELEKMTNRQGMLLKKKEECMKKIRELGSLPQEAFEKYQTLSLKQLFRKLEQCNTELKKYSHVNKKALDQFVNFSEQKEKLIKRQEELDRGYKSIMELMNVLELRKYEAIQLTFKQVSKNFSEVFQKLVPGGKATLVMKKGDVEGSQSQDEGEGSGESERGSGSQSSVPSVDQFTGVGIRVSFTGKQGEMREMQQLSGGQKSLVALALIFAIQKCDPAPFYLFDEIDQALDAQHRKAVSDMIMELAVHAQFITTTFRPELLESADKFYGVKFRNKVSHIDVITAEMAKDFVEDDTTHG
T1 sequence (O60216 whole entry, chain 3 of 3): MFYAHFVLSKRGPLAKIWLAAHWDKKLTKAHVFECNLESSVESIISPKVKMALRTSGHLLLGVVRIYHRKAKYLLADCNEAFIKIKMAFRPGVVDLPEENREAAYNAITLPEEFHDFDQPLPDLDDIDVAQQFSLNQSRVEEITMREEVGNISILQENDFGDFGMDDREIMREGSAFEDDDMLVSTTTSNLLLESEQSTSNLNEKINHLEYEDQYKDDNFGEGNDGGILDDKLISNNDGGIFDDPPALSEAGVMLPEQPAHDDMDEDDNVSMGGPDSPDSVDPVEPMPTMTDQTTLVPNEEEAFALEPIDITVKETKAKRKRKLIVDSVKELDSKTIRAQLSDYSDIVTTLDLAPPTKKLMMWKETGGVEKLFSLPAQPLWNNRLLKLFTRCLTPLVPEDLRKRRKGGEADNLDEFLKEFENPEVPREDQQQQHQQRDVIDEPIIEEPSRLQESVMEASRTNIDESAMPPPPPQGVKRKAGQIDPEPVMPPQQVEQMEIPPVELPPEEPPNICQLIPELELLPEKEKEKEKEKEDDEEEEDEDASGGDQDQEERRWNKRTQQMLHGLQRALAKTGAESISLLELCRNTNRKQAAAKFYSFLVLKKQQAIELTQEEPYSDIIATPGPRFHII

B1: STAG1 (natural protein, human, UniProt Q8WVM7 1-1258, looked up)
chain: MITSELPVLQDSTNETTAHSDAGSELEETEVKGKRKRGRPGRPPSTNKKPRKSPGEKSRIEAGIRGAGRGRANGHPQQNGEGEPVTLFEVVKLGKSAMQSVVDDWIESYKQDRDIALLDLINFFIQCSGCRGTVRIEMFRNMQNAEIIRKMTEEFDEDSGDYPLTMPGPQWKKFRSNFCEFIGVLIRQCQYSIIYDEYMMDTVISLLTGLSDSQVRAFRHTSTLAAMKLMTALVNVALNLSIHQDNTQRQYEAERNKMIGKRANERLELLLQKRKELQENQDEIENMMNSIFKGIFVHRYRDAIAEIRAICIEEIGVWMKMYSDAFLNDSYLKYVGWTLHDRQGEVRLKCLKALQSLYTNRELFPKLELFTNRFKDRIVSMTLDKEYDVAVEAIRLVTLILHGSEEALSNEDCENVYHLVYSAHRPVAVAAGEFLHKKLFSRHDPQAEEALAKRRGRNSPNGNLIRMLVLFFLESELHEHAAYLVDSLWESSQELLKDWECMTELLLEEPVQGEEAMSDRQESALIELMVCTIRQAAEAHPPVGRGTGKRVLTAKERKTQIDDRNKLTEHFIITLPMLLSKYSADAEKVANLLQIPQYFDLEIYSTGRMEKHLDALLKQIKFVVEKHVESDVLEACSKTYSILCSEEYTIQNRVDIARSQLIDEFVDRFNHSVEDLLQEGEEADDDDIYNVLSTLKRLTSFHNAHDLTKWDLFGNCYRLLKTGIEHGAMPEQIVVQALQCSHYSILWQLVKITDGSPSKEDLLVLRKTVKSFLAVCQQCLSNVNTPVKEQAFMLLCDLLMIFSHQLMTGGREGLQPLVFNPDTGLQSELLSFVMDHVFIDQDEENQSMEGDEEDEANKIEALHKRRNLLAAFSKLIIYDIVDMHAAADIFKHYMKYYNDYGDIIKETLSKTRQIDKIQCAKTLILSLQQLFNELVQEQGPNLDRTSAHVSGIKELARRFALTFGLDQIKTREAVATLHKDGIEFAFKYQNQKGQEYPPPNLAFLEVLSEFSSKLLRQDKKTVHSYLEKFLTEQMMERREDVWLPLISYRNSLVTGGEDDRMSVNSGSSSSKTSSVRNKKGRPPLHKKRVEDESLDNTWLNRTDTMIQTPGPLPAPQLTSTVLRENSRPMGDQIQEPESEHGSEPDFLHNPQMQISWLGQPKLEDLNRKDRTGMNYMKVRTGVRHAVRGLMEEDAEPIFEDVMMSSRSQLEDMNEEFEDTMVIDLPPSRNRRERAELRPDFFDSAAIIEDDSGFGMPMF
notes: human STAG1, a HAWK subunit of cohesin; measured at 148 ± 2 kDa by mass photometry; also called Scc3
Turning to B1, the results for the Kd in test [1] and in test [2] were 5.4 ± 1.7 nM and 6.2 ± 0.7 nM, respectively.
